# Assay results: the supplement of paper PMC10567573
# B1: EPB41L3 (parent)
# chain: KKFLTLGSKFRYSGRTQAQTRRAS
# Variants of: B1
# Test: protein stability index of a GFP-peptide fusion (GPS, HEK-293T) (PSI 1-6); higher = more stable
# Details: c terminus: a fixed tail appended
# 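Further: lentivirally expressed fusions sorted by FACS into six bins by GFP to DsRed ratio, PSI derived from sequencing read proportions per bin multiplied by bin number.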
row,Variant,protein stability index
1,T5A,3.78
2,T5Q,3.38
3,T5P,2.67
4,T5F,1.84
5,T5E,2.96
6,T5S,3.05
7,T5C,2.21
8,T5N,3.47
9,T5G,3.25
10,T5D,1.62
11,T5Y,1.88
12,T5R,3.06
13,T5W,1.56
14,T5H,2.82
15,T5K,3.39
16,T5I,2.27
17,T5M,2.74
18,Y12C,2.54
19,Y12R,4.02
20,Y12T,3.96
21,Y12I,3.69
22,Y12F,2.6
23,Y12Q,3.82
24,Y12M,3.9

row,Variant,protein stability index
1,Y12P,3.23
2,Y12K,3.01
3,Y12A,4.58
4,R22D,2.24
5,R22V,2.64
6,R22N,1.87
7,R22S,2.7
8,R22L,2.19
9,R22E,2.72
10,R22I,2.02
11,R22A,2.08
12,R22P,2.52
13,R22T,3.24
14,R22Y,2.13
15,R22W,1.41
16,R22M,1.75
17,R22K,3.1
18,R22Q,2.44
19,R22F,2.05
20,F10S,4.22
21,F10L,4.09
22,F10Y,3.21
23,F10C,3.11
24,F10Q,3.88

row,Variant,protein stability index
1,F10I,3.63
2,F10T,3.54
3,F10D,3.88
4,F10P,4.07
5,F10N,3.59
6,F10K,4.16
7,F10W,2.77
8,F10V,2.92
9,F10H,4.22
10,F10M,3.59
11,S24C,2.1
12,S24D,3.31
13,Q17A,2.32
14,Q17F,1.76
15,Q17I,2.57
16,Q17C,2.94
17,Q17T,2.38
18,Q17M,2.77
19,Q17G,2.63
20,Q17K,2.11
21,Q17S,2.01
22,Q17V,2.24
23,Q17E,2.76
24,Q17R,2.95

row,Variant,protein stability index
1,Q17L,2.77
2,Q17Y,2.12
3,Q17D,2.95
4,Q17H,3.25
5,Q17N,2.01
6,R15T,3.4
7,R15Q,3.3
8,R15F,2.19
9,R15I,2.19
10,R15V,2.93
11,R15P,2.58
12,R15E,2.89
13,R15S,2.53
14,R15G,2.33
15,R15Y,2.16
16,R15N,2.77
17,R15W,2.05
18,R15A,3.32
19,R15C,2.66
20,R15D,3.81
21,R15M,2.49
22,R15H,3.12
23,R15K,2.85
24,R15L,2.64

row,Variant,protein stability index
1,S8R,3.46
2,S8H,3.01
3,S8T,2.88
4,S8Q,2.78
5,S8L,2.17
6,S8V,2.81
7,S8K,2.56
8,S8C,2.04
9,S8N,2.89
10,S8Y,3.4
11,S8G,2.81
12,S8M,2.74
13,S8A,3.02
14,S8I,2.33
15,S8P,2.16
16,S8E,3.26
17,S8D,2.86
18,S8F,2.43
19,S13H,2.68
20,S13W,2.91
21,S13V,2.01
22,S13I,2.34
23,S13Q,3.04
24,S13C,1.41

row,Variant,protein stability index
1,S13P,2.55
2,S13K,3.96
3,S13T,2.74
4,S13G,2.88
5,S13Y,3.1
6,S13M,2.87
7,S13A,2.63
8,S13E,4.01
9,S13F,2.67
10,S13N,3.95
11,S13D,2.85
12,A23S,2.96
13,A23G,3.69
14,A23H,3
15,A23N,2.85
16,A23E,3.21
17,A23P,2.5
18,A23C,2.24
19,A23R,4.08
20,A23T,2.92
21,A23L,3.66
22,A23M,2.49
23,A23W,3.26
24,A23I,3.4

row,Variant,protein stability index
1,A23D,2.53
2,A23Y,2.13
3,A23K,3.81
4,A23Q,3.27
5,T20F,2.28
6,T20I,3.28
7,T20S,3.56
8,T20V,3.28
9,T20C,3.77
10,T20A,2.64
11,T20G,1.9
12,T20M,2.32
13,T20Y,2.69
14,T20L,2.06
15,T20N,2.62
16,T20P,2.81
17,T20K,3.2
18,T20R,3.47
19,T20H,2.91
20,T20D,2.33
21,R21L,1.61
22,R21N,2.1
23,R21T,2.24
24,R21I,2.16

row,Variant,protein stability index
1,R21F,1.98
2,R21W,2.85
3,R21M,1.86
4,R21Y,2.48
5,R21V,3.27
6,R21D,2.69
7,R21S,3.24
8,R21A,1.96
9,R21E,2.2
10,R21K,3.75
11,T16F,2.94
12,T16E,3.38
13,T16A,2.53
14,T16N,3.28
15,T16V,2.74
16,T16W,1.84
17,T16K,3.02
18,T16H,2.93
19,T16M,2.99
20,T16Y,3.72
21,T16Q,2.94
22,T16I,2.83
23,T16L,2.52
24,T16R,3.13

row,Variant,protein stability index
1,T16C,2.2
2,T16S,3.36
3,T16D,2.87
4,T16G,2.54
5,A18H,2.49
6,A18N,3.55
7,A18M,2.77
8,A18K,2.61
9,A18E,3.23
10,A18P,2.92
11,A18L,2.44
12,A18I,2.91
13,A18V,2.84
14,A18Y,3.11
15,A18F,2.44
16,A18S,3.19
17,A18T,3.1
18,A18Q,2.73
19,L4S,2.91
20,L4K,3.33
21,L4E,2.85
22,L4I,2.56
23,L4D,3.63
24,L4M,3.19

row,Variant,protein stability index
1,L4P,3.8
2,L4H,3.44
3,L4N,3.44
4,L4G,3.36
5,L4R,3.13
6,L4Q,2.38
7,L4V,3.02
8,L4A,2.98
9,L4F,2.99
10,L4T,3.11
11,L4C,3.06
12,G14L,4.04
13,G14N,3.67
14,G14W,4.87
15,G14A,3.42
16,G14Q,3.56
17,G14M,3.71
18,G14P,3.46
19,G14I,2.44
20,G14S,3.34
21,G14F,2.56
22,G14R,3.38
23,G14T,3.81
24,G14K,3.1

row,Variant,protein stability index
1,G14H,3.57
2,G14C,2.06
3,G14Y,3.03
4,G14E,3.75
5,G14V,2.96
6,G14D,2.81
7,F3H,3.82
8,F3I,3.32
9,F3Q,2.95
10,F3N,3.59
11,F3R,4.15
12,F3M,3.56
13,F3Y,3.58
14,F3E,3.11
15,F3L,3.22
16,F3S,3.78
17,F3V,3.07
18,F3K,3.65
19,F3P,3.6
20,F3T,3.48
21,K9V,2.23
22,K9Q,1.79
23,K9T,2.13
24,K9E,1.34

row,Variant,protein stability index
1,K9M,2.27
2,K9D,2.01
3,K9A,1.96
4,K9H,2.11
5,K9Y,2.85
6,K9N,1.99
7,K9L,2.29
8,K9C,1.66
9,K9I,2.6
10,K9F,2.13
11,Q19R,3.03
12,Q19N,3.41
13,Q19F,2.1
14,Q19T,2.61
15,Q19C,2.77
16,Q19D,1.2
17,Q19P,3.19
18,Q19A,2.68
19,Q19W,2.58
20,Q19S,2.45
21,Q19Y,2.22
22,Q19E,2.69
23,Q19I,2.37
24,Q19H,2.52

row,Variant,protein stability index
1,G7S,3.04
2,G7Q,2.85
3,G7M,2.09
4,G7N,2.88
5,G7A,2.95
6,G7C,2.38
7,G7V,2.26
8,G7W,1.52
9,G7K,2.37
10,G7L,2.25
11,G7H,2.51
12,G7F,2.4
13,G7P,3.18
14,G7D,3.3
15,G7I,1.35
16,G7T,3.58
17,G7Y,3.02
18,L6C,3.17
19,L6Y,2.48
20,L6S,2.52
21,L6M,2.64
22,L6I,2.75
23,L6A,4.31
24,L6N,3.44

row,Variant,protein stability index
1,L6Q,3.97
2,L6H,3.38
3,L6T,3.88
4,L6D,4.05
5,L6E,4.08
6,L6V,3.61
7,L6P,3.57
8,L6K,3.64
9,R11S,3.4
10,R11L,2.43
11,R11D,4.24
12,R11K,2.92
13,R11F,2.48
14,R11I,2.89
15,R11H,3.7
16,R11C,3.96
17,R11T,3.6
18,R11G,3.57
19,R11N,2.63
20,R11P,3.08
21,R11A,3.11
22,R11V,3.17
